Square brackets hold non-standard residues; d marks the D form. pS = N[C@@H](COP(=O)(O)O)C(=O)O
Assays:
[1] = target: MBP-KIX-apoferritin construct 3 (24-mer double-shell complex) (not stated | mouse); experiment: fluorescence polarisation
[2] = target: KIX domain of CREB-binding protein (CBP) (UniProt P45481 588-672); experiment: fluorescence polarisation
Chain of KIX domain of CREB-binding protein (CBP) (P45481 588-672): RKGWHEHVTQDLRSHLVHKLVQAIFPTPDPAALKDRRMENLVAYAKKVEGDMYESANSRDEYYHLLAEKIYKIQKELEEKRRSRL

For Ac-LSRRP[pS]YRKILNDLSSDAP-NH2 [peptide 7], the IC50 [1] was 311 µM and the IC50 [2] was 50 µM.

Ac-LKRRP[pS]YRKILNDLSSDAP-NH2 [peptide 7′] was tested, and the IC50 [1] was 170 µM and the IC50 [2] was 24.2 µM.
